# B1: mAb3-2 (antibody, V domains shown)
# VH: EVQLLESGGGLVQPGGSLRLSCAASGFTFSNYAMSWVRQAPGKGLEWVSLISGSGGSIDYADSVKGRFTISRDNSKNTLYLQMDSLRAEDTAVYYCSKDPIYYDLSGYYAGRIYYFDYWGQGTLVTVSS
# VL: EIVMTQSPATLSVSPGDTATLSCRASHSVSRDLAWYQQKPGQAPRLLIYDASTRATGIPARFSGSGSGTEFTLTISSLQSEDFAVYYCQQYINWVTFGPGTKVDIE
# B2: mAb3-1 (antibody, V domains shown)
# VH: EVQLLESGGGLVQPGGSLRLSCEASGFTFSRYPMNWVRQAPGKGLEWVSHISASGGTTYYADTVKGRFSISRDNSKNTLYLEMNSLRAEDTAIYFCAKDYPPDEVTMIVVGMPYFDSWGLGTLVSVSS
# VL: not shown
# B3: mAb2-5 (antibody, V domains shown)
# VH: EVQLVESGGGLVKPGGSPRLSCAASGFNFGSYSMNWVRQAPGKGLEWVSSISSSSSYIYYADSVKGRFTISRDNAKHSLYLQVNSLRAEDTAVYYCARDPTTYGYNSAWDKKGWYFDLWGRGTLLTVS
# VL: VLTQPPSVSAAPGQMVTISCSGSSSNIGNDYISWYQQLPGTAPKLLIYDNNERPSGIPDRFSGSKSGTSATLGITGVQTGDEADYYCGTWDSSLSAWVFGEGTKLTVV
# B4: mAb3-7 (antibody, V domains shown)
# VH: QVQLQESGPGLVKPSETLSLTCTVSGGSISNYYWNWIRQPPGKGLEWIGYVHYSGSTNYNPSLKSRVSVSVDTSKNQFSLNLGSVTAADTAVYYCARQSRSYYNEVITDPKYNFDYWGQGTLVTVSS
# VL: QSALTQPASVSGSPGQSITISCTGTSSDVGGYDYVSWYQQHPGKAPKLMIYDVSNRPSGVSNRFSGSKSGNTASLTISGLQAEDEADYYCSSYTSISTLVFGGGTKLTVL
# B5: mAb2-6 (antibody, V domains shown)
# VH: VQLLESGGALVQPGGSLRLSCAASGFSFSNYAMSWVRQAPGKGLEWVSTISASGGTTYFADSVKGHFTISRDNSKNTLYLQMDSLRAEDTAVYYCAKDPNYYDLSGYFLGGYYFDYWGQGTLVTVSS
# VL: EIVLTQSPGTLSLSPGERATLSCRASQSVRSSYLAWYQQKPGQAPRLLIYGASSRATDIPDRFSGSGSGTDFTLTISRLEPEDFAVYYCQQYGTSPAFGGGTKV
# B6: mAb3-5 (antibody, V domains shown)
# VH: EVQLVESGGGLVQPGGSLRLSCAASGFTFSNYGMNWVRQAPGKGLEWVSYISSGGTIYYADSVKGRFTISRDNAKNSVYLQMNSLRAEDTAVYYCARDPAYCGDDCYTIPAHYFDYWGQGTPVTVS
# VL: DIQMTQSPSSLSASVGDRVTITCRTSQSISRYLNWYQQKPGKAPKLLIYAASSLQSGVPSRFTGSGSGTDFTLTISSLQPEDFATYYCQQSYSIPPVTFGQGTRVD
# B7: mAb3-3 (antibody, V domains shown)
# VH: QVQLQESGPGLVKSSETLSLTCTVSGESISSSSHYWGWIRQPPGKGLEFLGNVYYLGSTYYNPSLESRVTILLDTSKNQFSLKVNSVTVADTAVYYCARHGAGSYSGLFFDYWGQGARVIVSS
# VL: DIQMTQSPSFVSASVGDRVNITCRASQGINSWLAWYQQKPGKAPKLLIYSASSLQSGVPSRFSGSGSGTDFTLTISTLQPEDFATYYCQQANSFPYTFGQGTKVD
# B8: mAb3-6 (antibody, V domains shown)
# VH: EVQLVESGGGLVQPGGSLRLSCSASGFHFSSYEMNWVRQAPGKGLEWVSYISSSGTYIDYADSVKGRFTISRDNPANSLYLQMYSLRAEDTAVYYCARRLWFGELPYSYYYGMDVWGQGTTVTVSS
# VL: ALTQPASVSGSPGQSITISCTGTSSDIGGYNYVSWYQQHPGKAPELLIFDVSNRPSGVSNRFSGSKSGNTASLTISGLQAEDEADYHCCSYTRTSTVIFGGGTKLTVL
# B9: mAb3-4 (antibody, V domains shown)
# VH: AVESGGGLVKPGGPLRLSCAASGFSLSDNYMTWIRQAPGKGLEWVSYISSSGSFINYADSVKGRFTISRDNAKNSLYLQMNSLRAEDTAVYYCARVLSSGGLTTSWRALWYFDVWGRGTLVTVS
# VL: TVVTQEPSFSVSPGGTVTLTCGLTSGSVSTSYYPSWYQQTPGQTPRTLIYSTNIRSSGVPDRFSGSILGNKAALTITGAQADDECDYYCVLYMGSGIWVFGGGTKLTVL
# Biological target: T1, AAV9 capsid (adeno-associated virus serotype 9, UniProt Q6JC40)
# T1 construct: also called wtAAV9; AAV9 vector; copies: 60
# Test: far-Western, overlay or dot blot; native dot immunoblot: native capsids adsorbed onto nitrocellulose; human mAbs at ~1 µg/ml in PBS with 6% milk, 0.1% Tween-20, 1 h; anti-human-HRP
# Settings: both partners purified
row,Binder,binding result
1,B1,binds
2,B2,binds
3,B3,binds
4,B4,binds
5,B5,binds
6,B6,binds
7,B7,binds
8,B8,binds
9,B9,binds
